Patent US7794964B2, “Biochip for the detection of phosphorylation and the detection method using the same” (Korea Atomic Energy Research Institute, priority 2008, dated 2010)

Key:
cdc2 protein kinase = cdc2 protein kinase (Homo sapiens, UniProt P06493); test: Phosphorylation of cdc2 protein kinase substrate on biochip using [γ-32P]ATP; type: biochemical; conditions: 1.0 mg/ml substrate on aldehyde treated slide glass; 10 unit/ml cdc2 protein kinase; 0.1 μCi/μl [γ-32P]ATP; BSA negative control
Protocol: (§1) To fix substrate on the aldehyde-treated slide glass (Nuricell Inc., Korea), 0.1 mg/ml of the Mep45-kinase substrate fusion protein or 1.25 μg/ml of peptide substrate (Promega, Madison, Wis.) was integrated. Particularly, the recombinant Mep45-kinase substrate fusion protein solution (10% glycerol, PBS, pH 7.5) was prepared at the concentration of 0.1 mg/ml, and this substrate solution was integrated on the aldehyde-treated slide glass at the spot intervals of 300 μm by using microarray device (Genetix Ltd, UK). The size of the spot was regulated to be 300 μm. The integrated biochip was reacted in a humid chamber at room temperature for one hour, leading to fixation.
(§2) The biochip constructed in Example 2 was washed three times with PBS (200 mM NaCl, 3 mM KCl, 2 mM KH2PO4, 1 mM Na2HPO4, pH 7.5), followed by reaction of the kinase and substrate on the chip. Particularly, the chip was washed with kinase buffer (40 mM Tris-HCl, 20 mM MgCl2, 0.1 mg/ml BSA, pH 7.5) once. […]
1.0 mg/ml of PKTPKKAKKL (SEQ. ID. NO: 2) and Mep45 fusion substrate were integrated on the aldehyde treated slide glass, followed by phosphorylation using 10 unit/ml of cdc2 protein kinase and 0.1 μCi/μl of [γ-^32P]ATP. Phosphorylation was measured by using X-ray film or X-ray fluorescence spectrometer. […]

PKC (Protein Kinase C) = test: Phosphorylation of PKC substrate on biochip using [γ-32P]ATP; type: biochemical; conditions: 0.3 mg/ml substrate on aldehyde treated slide glass; 10 unit/ml PKC; 0.1 μCi/μl [γ-32P]ATP; BSA negative control
Protocol: as §1, §2
0.3 mg/ml of AAKIQASFRGHMARKK (SEQ. ID. NO: 1) and Mep45 fusion substrate were integrated on the aldehyde treated slide glass, followed by phosphorylation using 10 unit/ml of PKC and 0.1 μCi/μl of [γ-^32P]ATP. Phosphorylation was measured by using X-ray film or X-ray fluorescence spectrometer. […]

Sequence of cdc2 protein kinase (P06493 whole entry, the tested form may be a part): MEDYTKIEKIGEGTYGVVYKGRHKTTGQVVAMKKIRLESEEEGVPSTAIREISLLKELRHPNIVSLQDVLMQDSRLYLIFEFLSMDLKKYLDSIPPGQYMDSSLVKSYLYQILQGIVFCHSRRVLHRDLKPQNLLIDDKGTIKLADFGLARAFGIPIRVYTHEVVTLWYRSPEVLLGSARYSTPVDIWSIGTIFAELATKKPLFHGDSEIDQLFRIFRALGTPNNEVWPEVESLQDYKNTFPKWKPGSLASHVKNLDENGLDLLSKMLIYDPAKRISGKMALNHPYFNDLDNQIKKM
Sequence of cdc2 protein kinase (P14635 whole entry partner, the tested form may be a part): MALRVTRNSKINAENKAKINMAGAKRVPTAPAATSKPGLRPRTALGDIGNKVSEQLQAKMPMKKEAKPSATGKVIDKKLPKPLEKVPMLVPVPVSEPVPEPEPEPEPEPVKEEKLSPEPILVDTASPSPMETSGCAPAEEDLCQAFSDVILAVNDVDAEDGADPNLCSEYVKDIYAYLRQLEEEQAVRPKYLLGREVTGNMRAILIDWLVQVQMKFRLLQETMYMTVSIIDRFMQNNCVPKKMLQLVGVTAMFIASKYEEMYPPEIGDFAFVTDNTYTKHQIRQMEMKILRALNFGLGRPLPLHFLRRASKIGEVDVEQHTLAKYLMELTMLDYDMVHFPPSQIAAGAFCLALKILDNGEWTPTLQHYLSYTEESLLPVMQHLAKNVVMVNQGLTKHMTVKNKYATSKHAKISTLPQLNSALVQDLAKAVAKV

| phosphorylation signal on the spot (X-ray film or X-ray fluorescence spectrometer) (cdc2 protein kinase) | phosphorylation signal on the spot (X-ray film or X-ray fluorescence spectrometer) (PKC (Protein Kinase C)) | Sequence |
| --- | --- | --- |
| clear signal was detected |  | PKTPKKAKKL (cdc2 Protein Kinase substrate) [peptide substrate for cdc2-PK (cdc2 Protein Kinase)] |
|  | clear signal was detected | AAKIQASFRGHMARKK (Protein Kinase C substrate) [peptide substrate for PKC (Protein Kinase C)] |
